Results: PMC10397247
Blank lines part the entries; values can stand above or below the binder they belong to.

Legend:
4H3606-AA = target: T1, 4H3606-AA; assay: two-hybrid library CCmax; conditions: mean of both orientations;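 also: natural log of median RNA to DNA barcode read ratio; higher means stronger binding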
T1 chain: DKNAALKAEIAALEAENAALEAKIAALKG

4H3588-AA = target: T2, 4H3588-AA; assay: two-hybrid library CCmax;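 also: natural log of median RNA to DNA barcode read ratio; higher means stronger binding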
T2 chain: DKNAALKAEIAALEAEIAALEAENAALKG

4H982-AA = target: T3, 4H982-AA; assay: two-hybrid library CCmax; conditions: mean of both orientations;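 also: natural log of median RNA to DNA barcode read ratio; higher means stronger binding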
T3 chain: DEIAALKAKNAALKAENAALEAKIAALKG

4H3718-AA = target: T4, 4H3718-AA; assay: two-hybrid library CCmax; conditions: mean of both orientations;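 also: natural log of median RNA to DNA barcode read ratio; higher means stronger binding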
T4 chain: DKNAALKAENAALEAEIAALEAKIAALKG

4H3865-AA = target: T5, 4H3865-AA; assay: two-hybrid library CCmax; conditions: mean of both orientations;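 also: natural log of median RNA to DNA barcode read ratio; higher means stronger binding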
T5 chain: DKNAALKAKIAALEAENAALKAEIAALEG

4H3631-AA = target: T6, 4H3631-AA; assay: two-hybrid library CCmax; conditions: mean of both orientations;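 also: natural log of median RNA to DNA barcode read ratio; higher means stronger binding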
T6 chain: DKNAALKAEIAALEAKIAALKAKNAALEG

4H697-AA = target: T7, 4H697-AA; assay: two-hybrid library CCmax; conditions: mean of both orientations
T7 chain: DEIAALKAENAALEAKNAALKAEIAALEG

4H384-AA = target: T8, 4H384-AA; assay: two-hybrid library CCmax; conditions: mean of both orientations
T8 chain: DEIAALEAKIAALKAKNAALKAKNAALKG

4H3697-AA = target: T9, 4H3697-AA; assay: two-hybrid library CCmax; conditions: mean of both orientations
T9 chain: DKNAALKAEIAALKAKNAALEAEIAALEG

4H63-AA = target: T10, 4H63-AA; assay: two-hybrid library CCmax; conditions: mean of both orientations
T10 chain: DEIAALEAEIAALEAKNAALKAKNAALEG

4H446-AA = target: T11, 4H446-AA; assay: two-hybrid library CCmax; conditions: mean of both orientations
T11 chain: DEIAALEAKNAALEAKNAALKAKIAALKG

4H478-AA = target: T12, 4H478-AA; assay: two-hybrid library CCmax; conditions: mean of both orientations
T12 chain: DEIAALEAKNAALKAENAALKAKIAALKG

4H483-AA = target: T13, 4H483-AA; assay: two-hybrid library CCmax; conditions: mean of both orientations
T13 chain: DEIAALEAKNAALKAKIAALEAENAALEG

4H675-AA = target: T14, 4H675-AA; assay: two-hybrid library CCmax; conditions: mean of both orientations
T14 chain: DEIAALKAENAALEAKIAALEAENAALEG

4H464-AA = target: T15, 4H464-AA; assay: two-hybrid library CCmax; conditions: mean of both orientations
T15 chain: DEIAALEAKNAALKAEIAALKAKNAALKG

4H497-AA = target: T16, 4H497-AA; assay: two-hybrid library CCmax; conditions: mean of both orientations
T16 chain: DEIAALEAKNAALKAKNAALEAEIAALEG

4H3939-AA = target: T17, 4H3939-AA; assay: two-hybrid library CCmax
T17 chain: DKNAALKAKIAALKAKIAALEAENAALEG

4H656-AA = target: T18, 4H656-AA; assay: two-hybrid library CCmax; conditions: mean of both orientations
T18 chain: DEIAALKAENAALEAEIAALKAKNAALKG

4H428-AA = target: T19, 4H428-AA; assay: two-hybrid library CCmax; conditions: mean of both orientations
T19 chain: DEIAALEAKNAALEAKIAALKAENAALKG

4H971-AA = target: T20, 4H971-AA; assay: two-hybrid library CCmax; conditions: mean of both orientations
T20 chain: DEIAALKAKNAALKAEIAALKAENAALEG

4H3969-AA = target: T21, 4H3969-AA; assay: two-hybrid library CCmax; conditions: mean of both orientations
T21 chain: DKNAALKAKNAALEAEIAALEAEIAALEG

APC9319-AA = target: T22, APC9319-AA; assay: two-hybrid library CCmax
T22 chain: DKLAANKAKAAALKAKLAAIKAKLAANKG

4H72-bA = target: T23, 4H72-bA; assay: two-hybrid library CCNG1
T23 chain: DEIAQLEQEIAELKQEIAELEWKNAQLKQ

4H953-bA = target: T24, 4H953-bA; assay: two-hybrid library CCNG1
T24 chain: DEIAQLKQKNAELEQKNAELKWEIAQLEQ

4H918-bA = target: T25, 4H918-bA; assay: two-hybrid library CCNG1
T25 chain: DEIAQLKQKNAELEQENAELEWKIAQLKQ

4H797-bA = target: T26, 4H797-bA; assay: two-hybrid library CCNG1
T26 chain: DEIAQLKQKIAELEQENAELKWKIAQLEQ

4H754-bA = target: T27, 4H754-bA; assay: two-hybrid library CCNG1
T27 chain: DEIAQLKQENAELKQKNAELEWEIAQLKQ

4H717-bA = target: T28, 4H717-bA; assay: two-hybrid library CCNG1
T28 chain: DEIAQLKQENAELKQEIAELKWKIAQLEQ

4H967-bA = target: T29, 4H967-bA; assay: two-hybrid library CCNG1
T29 chain: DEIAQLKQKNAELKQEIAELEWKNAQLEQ

4H883-bA = target: T30, 4H883-bA; assay: two-hybrid library CCNG1
T30 chain: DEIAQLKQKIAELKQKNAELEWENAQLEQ

4H908-bA = target: T31, 4H908-bA; assay: two-hybrid library CCNG1
T31 chain: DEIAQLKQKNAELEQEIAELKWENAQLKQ

4H_APH = target: T32, 4H_APH; assay: two-hybrid library CCmax; conditions: mean of both orientations
T32 chain: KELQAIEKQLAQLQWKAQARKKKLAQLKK

4H_BCR = target: T33, 4H_BCR; assay: two-hybrid library CCmax; conditions: mean of both orientations
T33 chain: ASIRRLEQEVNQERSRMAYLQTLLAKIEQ

4H56-AA = target: T34, 4H56-AA; assay: two-hybrid library CCmax
T34 chain: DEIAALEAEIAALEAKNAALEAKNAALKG

4H_GCN4 = assay: two-hybrid library CCmax
4H_GCN4, sequence (chain, as listed by the source): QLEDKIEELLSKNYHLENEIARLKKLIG

GCN2_T = assay: two-hybrid library CCmax
4H968-bH = target: T35, 4H968-bH; assay: two-hybrid library CCNG1
T35 chain: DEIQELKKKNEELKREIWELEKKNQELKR

4H432-AA = target: T36, 4H432-AA; assay: two-hybrid library CCmax; conditions: mean of both orientations
T36 chain: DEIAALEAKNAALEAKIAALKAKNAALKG

4H3974-AA = target: T37, 4H3974-AA; assay: two-hybrid library CCmax; conditions: mean of both orientations
T37 chain: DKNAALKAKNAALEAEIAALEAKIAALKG

4H3915-AA = target: T38, 4H3915-AA; assay: two-hybrid library CCmax; conditions: mean of both orientations
T38 chain: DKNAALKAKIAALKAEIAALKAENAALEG

4H380-AA = target: T39, 4H380-AA; assay: two-hybrid library CCmax; conditions: mean of both orientations
T39 chain: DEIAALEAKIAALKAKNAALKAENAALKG

4H3777-AA = target: T40, 4H3777-AA; assay: two-hybrid library CCmax
T40 chain: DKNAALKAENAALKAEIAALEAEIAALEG

interaction score (4H3606-AA): -1.57
interaction score (4H3588-AA): -1.05
interaction score (4H982-AA): -1.37
interaction score (4H3718-AA): 0.71
interaction score (4H3865-AA): -1.15
interaction score (4H3631-AA): -0.285
interaction score (4H697-AA): -1.44
interaction score (4H384-AA): 1.38
interaction score (4H3697-AA): -2.28
Binder: DKNAALKAEIAALEAEIAALEAENAALKG [4H3588-AA]

interaction score (4H63-AA): 1.57
interaction score (4H446-AA): -0.459
interaction score (4H478-AA): -1.63
interaction score (4H483-AA): -2.02
interaction score (4H675-AA): -1.53
interaction score (4H464-AA): -1.97
interaction score (4H497-AA): -1.92
interaction score (4H3939-AA): -1.07
interaction score (4H656-AA): -0.924
interaction score (4H428-AA): -1.64
interaction score (4H971-AA): -1.81
interaction score (4H3969-AA): -0.371
Binder: DKNAALKAKIAALKAKIAALEAENAALEG [4H3939-AA]

interaction score (APC9319-AA): -1.58
Binder: DKLAANKAKAAALKAKLAAIKAKLAANKG [APC9319-AA]

interaction score (4H72-bA): 0.154
interaction score (4H953-bA): -0.433
interaction score (4H918-bA): -0.185
interaction score (4H797-bA): -1.13
interaction score (4H754-bA): -0.36
interaction score (4H717-bA): 0.924
interaction score (4H967-bA): -0.574
interaction score (4H883-bA): -1.09
interaction score (4H908-bA): 0.244
Binder: DEIAQLKQENAELKQEIAELKWKIAQLEQ [4H717-bA]

interaction score (4H_APH): -1.29
interaction score (4H_BCR): -1.53
interaction score (4H56-AA): -0.981
interaction score (4H_GCN4): -1.92
interaction score (GCN2_T): -1.38
Binder: DEIAALEAEIAALEAKNAALEAKNAALKG [4H56-AA]

interaction score (4H968-bH): 0.196
Binder: DEIQELKKKNEELKREIWELEKKNQELKR [4H968-bH]

interaction score (4H63-AA): -1.54
interaction score (4H446-AA): -0.779
interaction score (4H432-AA): -1.01
interaction score (4H3974-AA): -0.511
interaction score (4H3915-AA): -0.495
interaction score (4H380-AA): -1.42
interaction score (4H3777-AA): -0.62
Binder: DKNAALKAENAALKAEIAALEAEIAALEG [4H3777-AA]
